pKd: −log10 of the molar value.
Tests used:
[1] = test system: 2G12 (anti-HIV-1 gp120 carbohydrate-binding monoclonal antibody); assay: filter
[2] = test system: 2G12 (anti-HIV-1 gp120 carbohydrate-binding monoclonal antibody); assay: BLI; conditions: N are Man9-derivatized dU (3 sites); 5' A5 spacer [26,33,39]; 1:1 global fit; kon 2.04e4 /M/s, koff 2.53e-4 /s

## CGGGTACGGGAGACCCATGGTGCAACCTACGGATAAAGCACACAGGAGACGACAAG [Clone 7 glycoDNA]
[1]; all T in random region are EdU-Man9, moderate binding, Mg2+ buffer
  pKd: 7.92

## CGGGTACGGGAGACCCACAGTGCAACCTACGGATAAAGCACACAGGAGACGACAAG [Clone 2 glycoDNA]
[1]; all T in random region are EdU-Man9 (3 sites), 20 mM Tris pH 7.5, 150 mM NaCl, 4 mM MgSO4, BSA, binding at 37 C also shown in FIG. 11
  pKd: 8.77

## AAAAACGGGTACGGGAGACCCACGGTGCAACCTACGGATAAAGCACACAGGAGACGACAAG [Clone 1 biotinylated glycoDNA (BLI)]
[2]
  pKd: 7.91

From patent US11268099
